From patent publication US6835378B2, “Method and compositions for inhibiting thrombin-induced coagulation” (The Texas A&M University System University, priority 2001, dated 2004)

Test system: fibronectin, collagen types I and IV, vitronectin, laminin and thrombospondin
Assay: ELISA: ligand specificity on other immobilized ECM proteins
Format: binding
Conditions: data not shown

B1: rSdrG(50-597): recombinant His-tagged A region (residues 50-597) of SdrG, a fibrinogen-binding MSCRAMM from S. epidermidis (protein)
chain: HHHHHHAEENTVQDVKDSNMDDELSDSNDQSSNEEKNDVINNSQSINTDDDNQIKKEETNSNDAIENRSKDITQSTTNVDENEATFLQKTPQDNTQLKEEVVKEPSSVESSNSSMDTAQQPSHTTINSEASIQTSDNEENSRVSDFANSKIIESNTESNKEENTIEQPNKVREDSITSQPSSYKNIDEKISNQDELLNLPINEYENKVRPLSTTSAQPSSKRVTVNQLAAEQGSNVNHLIKVTDQSITEGYDDSDGIIKAHDAENLIYDVTFEVDDKVKSGDTMTVNIDKNTVPSDLTDSFAIPKIKDNSGEIIATGTYDNTNKQITYTFTDYVDKYENIKAHLKLTSYIDKSKVPNNNTKLDVEYKTALSSVNKTITVEYQKPNENRTANLQSMFTNIDTKNHTVEQTIYINPLRYSAKETNVNISGNGDEGSTIIDDSTIIKVYKVGDNQNLPDSNRIYDYSEYEDVTNDDYAQLGNNNDVNINFGNIDSPYIIKVISKYDPNKDDYTTIQQTVTMQTTINEYTGEFRTASYDNTIAFSTSSGQGQGDLPPE
- binding to other immobilized ECM proteins: failed to bind
